Experimental data: paper PMC2722981

Target: PCBP1 KH1/2 (mouse, UniProt P60335 13-170)
Test: filter binding

PCBP1 KH1/2, sequence (P60335 13-170): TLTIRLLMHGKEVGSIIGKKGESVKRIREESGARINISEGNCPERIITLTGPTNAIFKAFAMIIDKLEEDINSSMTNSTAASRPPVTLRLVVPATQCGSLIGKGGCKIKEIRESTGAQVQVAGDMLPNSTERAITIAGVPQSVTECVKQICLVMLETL

B1: R7a1 (structured_RNA)
RNA: GGAGUGACCUUCUCAACUUUAUAUUCCCUUUACCCCUUCCCCCAAGGCACU
Kd: 42.3 ± 12 nM
